Source: patent US7122382

Target: SV40 large T (SV40), P03070
Experiment: biotinylated row protein on streptavidin beads, 35S column protein counted
Details: remark: other sources report otherwise

B1: p53, P02340 1-390 (protein)
chain: MTAMEESQSDISLELPLSQETFSGLWKLLPPEDILPSPHCMDDLLLPQDVEEFFEGPSEALRVSGAPAAQDPVTETPGPVAPAPATPWPLSSFVPSQKTYQGNYGFHLGFLQSGTAKSVMCTYSPPLNKLFCQLAKTCPVQLWVSATPPAGSRVRAMAIYKKSQHMTEVVRRCPHHERCSDGDGLAPPQHLIRVEGNLYPEYLEDRQTFRHSVVVPYEPPEAGSEYTTIHYKYMCNSSCMGGMNRRPILTIITLEDSSGNLLGRDSFEVRVCACPGRDRRTEEENFRKKEVLCPELPPGSAKRALPTCTSASPPQKKKPLDGEYFTLKIRGRKRFEMFRELNEALELKDAHATEESGDSRAHSSYLKTKKGQSTSRHKKTMVKKVGPDSD
modifications: here or on the partner: 35S-methionine label or biotinylated lysine, by its role in the assay
RI (c.p.m.): 884 c.p.m.
